Measured values as given in paper PMC9424855, “Obligately aerobic human gut microbe expresses an oxygen resistant tungsten-containing oxidoreductase for detoxifying gut aldehydes” (Frontiers in Microbiology, 2022).

Tests used:
[1] = biological target: Brevibacillus massiliensis tungsten-containing oxidoreductase (BmWOR) (Brevibacillus massiliensis)
BmWOR = BmWOR (Brevibacillus massiliensis, UniProt Z9C1J5R5O5); assay: benzyl viologen reduction followed at […] nm; conditions: apparent Km; benzyl viologen 1 mM as electron acceptor, 50 mM HEPES pH 7.5, 35 °C, anaerobic
BmWOR, sequence (Z9C1J5R5O5 1-602): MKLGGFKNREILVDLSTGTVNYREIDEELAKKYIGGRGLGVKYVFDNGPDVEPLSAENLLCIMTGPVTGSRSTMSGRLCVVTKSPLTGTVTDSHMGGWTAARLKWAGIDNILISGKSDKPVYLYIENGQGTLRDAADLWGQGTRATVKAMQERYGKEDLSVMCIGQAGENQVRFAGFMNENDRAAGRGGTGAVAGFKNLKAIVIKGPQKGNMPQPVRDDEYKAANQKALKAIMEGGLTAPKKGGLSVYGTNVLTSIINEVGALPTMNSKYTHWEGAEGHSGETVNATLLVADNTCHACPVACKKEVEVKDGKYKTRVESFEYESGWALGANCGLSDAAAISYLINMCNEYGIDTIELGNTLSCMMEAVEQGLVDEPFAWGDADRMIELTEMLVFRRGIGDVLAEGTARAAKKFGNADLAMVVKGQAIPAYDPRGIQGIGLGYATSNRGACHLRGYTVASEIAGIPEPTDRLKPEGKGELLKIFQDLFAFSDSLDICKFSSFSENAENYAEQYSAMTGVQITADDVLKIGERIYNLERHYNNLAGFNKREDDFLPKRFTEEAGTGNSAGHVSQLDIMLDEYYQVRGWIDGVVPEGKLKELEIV
O=Cc1ccco1 = assay: purified protein; conditions: apparent Km, benzyl viologen 1 mM as electron acceptor, 50 mM HEPES pH 7.5, 35 °C, anaerobic
CC(C)CC=O = assay: purified protein; conditions: apparent Km, benzyl viologen 1 mM as electron acceptor, 50 mM HEPES pH 7.5, 35 °C, anaerobic
O=C/C=C/c1ccccc1 = assay: purified protein; conditions: apparent Km, benzyl viologen 1 mM as electron acceptor, 50 mM HEPES pH 7.5, 35 °C, anaerobic
O=Cc1ccccc1 = assay: purified protein; conditions: apparent Km, benzyl viologen 1 mM as electron acceptor, 50 mM HEPES pH 7.5, 35 °C, anaerobic

With “Brevibacillus massiliensis ferredoxin (BmFd) (natural protein)” the apparent Km for Fd as electron acceptor of BmWOR in the benzaldehyde oxidation assay (enzyme activity, Fd reduction followed at 425 nm) [1] was less than 5 µM.
Tolualdehyde gave a Km (BmWOR) of 6.1 ± 2.1 µM.
For BmWOR (Brevibacillus massiliensis), the Km (O=Cc1ccco1) was 2.1 ± 2.0 µM, the Km (CC(C)CC=O) was 3.6 ± 0.9 µM and the Km (O=C/C=C/c1ccccc1) was 5.6 ± 1.2 µM. The Km (O=Cc1ccccc1) was 4.2 ± 1.0 µM.
